Laboratory results: PMC7335187 (2020)

T1: Atg8 (1-116) K26P (S. cerevisiae, UniProt P38182 1-116, K26P)
T1 sequence: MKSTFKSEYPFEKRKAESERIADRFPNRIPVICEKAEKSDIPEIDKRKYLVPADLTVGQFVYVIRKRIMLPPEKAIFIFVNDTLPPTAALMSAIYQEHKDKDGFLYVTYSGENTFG


Biological target: GABARAP WT (human GABARAP 1-116) (human, UniProt O95166 1-116)
Test: ITC

GABARAP WT (human GABARAP 1-116), sequence (O95166 1-116): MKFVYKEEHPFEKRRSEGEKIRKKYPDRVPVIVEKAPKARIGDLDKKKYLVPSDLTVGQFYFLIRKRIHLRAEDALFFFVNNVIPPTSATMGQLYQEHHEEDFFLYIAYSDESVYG

DDFELLDQY [FAM134B453-460 (Δhelix) peptide] and NDFEMITKY [SEC62361-368 (Δhelix) peptide] are within 1.5-fold of each other in Kd: 2.54 µM for the first, 3.38 µM for the second.

Compared with GPEEDTDTEEGDDFELLDQSELDQIESELY [FAM134B444-470 WT peptide], GPEEDTDTEEGDDFALLDQSALDQIESELY [FAM134B444-470 E456A E462A peptide] is 24-fold higher in Kd: 0.14 µM for the first, 3.39 µM for the second. The first binds more tightly here.

With GPHSSGNGNDFEMITKEELEQQTDY [SEC62355-376 WT peptide] the Kd was 0.19 µM.

Biological target: T1, Atg8 (1-116) K26P
Test: ITC

First: EFPNDYDFAEDILDET [Atg40^237–252 M245A peptide]
Second: TSTEFPNDADFMEDILDET [Atg40 peptide Y242A]
The Kd of the first is 1.5-fold lower: 21.7 µM for the first, 32.7 µM for the second. The first binds more tightly here.

In the case of TSTEAPNDYDFMEDILDET [Atg40 peptide F238A], the Kd is reported as 4.31 µM.
